Laboratory results taken from patent publication US20240181022A1, “AMURINS LYSINS, AND LYSIN-ANTIMICROBIAL PEPTIDE (AMP) CONSTRUCTS ACTIVE AGAINST GRAM-NEGATIVE BACTERIA” (priority 2021, published 2024).

Tests used:
[1] = test system: A. baumannii (ATCC BAA-747); assay: microbe, parasite or virus in culture; format: cell-based, Acinetobacter baumannii
E. coli [2] = assay: GN370 time-kill assay, E. coli; format: cell-based, Escherichia coli; details: for Log10 CFU/mL: E. coli AR-128
Description: (§1) A kinetic analysis of GN370 bactericidal activity was performed using a time-kill assay format in which CFU reductions of each target organism (P. aeruginosa, K. pneumoniae, A. baumannii, E. coli, and E. cloacae) were measured over 24 hours at 37° C. […] Bactericidal activity was defined as CFU reductions of ≥3-log 10 CFU/mL as compared to the inoculum at the 24-hour time point. See Methods for Determining Bactericidal Activity of Antimicrobial Agents; Approved Guideline, NCCLS document M26-A, CLSI 1999 (Wayne, PA).

K. pneumoniae [3] = assay: MIC by broth microdilution against K. pneumoniae; format: cell-based, Klebsiella pneumoniae
P. aeruginosa = assay: GN370 time-kill assay, P. aeruginosa; format: cell-based, Pseudomonas aeruginosa; details: for Log10 CFU/mL: P. aeruginosa PA25
Description: as §1, with “point.” for “point. See Methods for Determining Bactericidal Activity of Antimicrobial Agents; Approved Guideline, NCCLS document M26-A, CLSI 1999 (Wayne, PA).”

P. aeruginosa AR-769 = assay: GN370 in the rabbit pneumonia model; format: in vivo, New Zealand White rabbits
E. coli [4] = assay: MBEC against E. coli biofilm; format: cell-based, Escherichia coli; details: MDR and XDR E. coli (11)
K. pneumoniae [5] = assay: GN370 time-kill assay, K. pneumoniae; format: cell-based, Klebsiella pneumoniae; details: for Log10 CFU/mL: K. pneumoniae ATCC 700603
Description: as §1, with “point.” for “point. See Methods for Determining Bactericidal Activity of Antimicrobial Agents; Approved Guideline, NCCLS document M26-A, CLSI 1999 (Wayne, PA).”

A. baumannii = assay: GN370 time-kill assay, A. baumannii; format: cell-based, Acinetobacter baumannii; details: for Log10 CFU/mL: A. baumannii ATCC BAA 747
Description: as §1, with “point.” for “point. See Methods for Determining Bactericidal Activity of Antimicrobial Agents; Approved Guideline, NCCLS document M26-A, CLSI 1999 (Wayne, PA).”

[6] = Klebsiella pneumoniae, AR Bank, N 32
[7] = Klebsiella pneumoniae, Weill Cornell, N 9
[8] = Klebsiella pneumoniae, all isolates, N 41

B1: GN370: lysin-AMP construct, SEQ ID NO: 149: MIDR, FIRL and NPTH moieties N-terminal to GN202 lysin (protein)
chain: MIDRFIRLNPTHGPRRPRRPGRRAPVRTSQRGIDLIKSFEGLRLSAYQDSVGVWTIGYGTTRGVTRYMTITVEQAERMLSNDIQRFEPELDRLAKVPLNQNQWDALMSFVYNLGAANLASSTLLDLLNKGDYQGAADQFPHWVNAGGKRLDGLVKRRAAERALFLEPLS
modifications: GN370 lysin
change in MIC over 28-day serial passage ([1]; A. baumannii (ATCC BAA-747)): No change
MIC ([1]; A. baumannii ATCC BAA-747, target organism of serial passage study): 1 µg/mL
Log10 CFU/mL (E. coli [2]; 0.2x MIC, 24 hr): 8.4 Log10 CFU/mL
Log10 CFU/mL (E. coli [2]; 1x MIC, 1 hr): 4.4 Log10 CFU/mL
Log10 CFU/mL (E. coli [2]; 1x MIC, 3 hr): 2.5 Log10 CFU/mL
Log10 CFU/mL (E. coli [2]; 2x MIC, 1 hr): 4.4 Log10 CFU/mL
Log10 CFU/mL (E. coli [2]; 2x MIC, 3 hr): 2.2 Log10 CFU/mL
Log10 CFU/mL (E. coli [2]; 5x MIC, 1 hr): 3.0 Log10 CFU/mL
concentration with bactericidal activity (≥3-log 10 CFU/mL reduction at 24 hours) (E. coli [2]; E. coli, 37° C.): ≥ 1 ×MIC
MIC (K. pneumoniae [3]; K. pneumoniae ATCC 700603): (MIC = 4 μg/mL)
MIC (K. pneumoniae [3]; K. pneumoniae HM-44 (head of Table 19)): 4 µg/mL
MIC90 (K. pneumoniae [3]; K. pneumoniae clinical and resistant isolates): 4 µg/mL
MIC50 (K. pneumoniae [3]; [6]): 1 µg/mL
MIC90 (K. pneumoniae [3]; [6]): 4 µg/mL
MIC Range (K. pneumoniae [3]; [6]): 0.125 to 4 µg/mL
MIC50 (K. pneumoniae [3]; [7]): 2 µg/mL
MIC90 (K. pneumoniae [3]; [7]): 4 µg/mL
MIC Range (K. pneumoniae [3]; [7]): 0.25 to 4 µg/mL
MIC50 (K. pneumoniae [3]; [8]): 2 µg/mL
MIC90 (K. pneumoniae [3]; [8]): 4 µg/mL
MIC Range (K. pneumoniae [3]; [8]): 0.125 to 4 µg/mL
Log10 CFU/mL (P. aeruginosa; 0.2x MIC, 1 hr): 4.5 Log10 CFU/mL
Log10 CFU/mL (P. aeruginosa; 0.2x MIC, 3 hr): 4.7 Log10 CFU/mL
Log10 CFU/mL (P. aeruginosa; 0.2x MIC, 24 hr): 9.5 Log10 CFU/mL
Log10 CFU/mL (P. aeruginosa; 1x MIC, 1 hr): 1.5 Log10 CFU/mL
Log10 CFU/mL (P. aeruginosa; 1x MIC, 3 hr): 1.5 Log10 CFU/mL
Log10 CFU/mL (P. aeruginosa; 1x MIC, 24 hr): 1.54 Log10 CFU/mL
Log10 CFU/mL (P. aeruginosa; 2x MIC, 1 hr): 1.5 Log10 CFU/mL
Log10 CFU/mL (P. aeruginosa; 2x MIC, 3 hr): 1.5 Log10 CFU/mL
Log10 CFU/mL (P. aeruginosa; 2x MIC, 24 hr): 1.5 Log10 CFU/mL
Log10 CFU/mL (P. aeruginosa; 5x MIC, 1 hr): 1.5 Log10 CFU/mL
Log10 CFU/mL (P. aeruginosa; 5x MIC, 3 hr): 1.5 Log10 CFU/mL
Log10 CFU/mL (P. aeruginosa; 5x MIC, 24 hr): 1.5 Log10 CFU/mL
concentration with bactericidal activity (≥3-log 10 CFU/mL reduction at 24 hours) (P. aeruginosa; P. aeruginosa, 37° C.): ≥ 1 ×MIC
animals surviving until the end of the study (P. aeruginosa AR-769; GN370 at 3 mg/kg and 10 mg/kg alone or in addition to amikacin): 100%
decrease of mean bacterial densities in lungs vs vehicle controls (P. aeruginosa AR-769; amikacin-alone or GN370-alone): ~2.0 log10 CFU/g
MBEC50 (E. coli [4]): 0.5 µg/mL
MBEC90 (E. coli [4]): 2 µg/mL
MBEC Range (E. coli [4]): 0.25 to 2 µg/mL
Number of isolates at MBEC 0.5 μg/mL (E. coli [4]): 5
Number of isolates at MBEC 1 μg/mL (E. coli [4]): 2
Number of isolates at MBEC 2 μg/mL (E. coli [4]): 2
Number of isolates at MBEC […] (E. coli [4]): 2
Log10 CFU/mL (K. pneumoniae [5]; 0.2x MIC, 1 hr): 5.2 Log10 CFU/mL
Log10 CFU/mL (K. pneumoniae [5]; 0.2x MIC, 3 hr): 5.0 Log10 CFU/mL
Log10 CFU/mL (K. pneumoniae [5]; 0.2x MIC, 24 hr): 8.5 Log10 CFU/mL
Log10 CFU/mL (K. pneumoniae [5]; 1x MIC, 1 hr): 2.0 Log10 CFU/mL
Log10 CFU/mL (K. pneumoniae [5]; 1x MIC, 3 hr): 1.5 Log10 CFU/mL
Log10 CFU/mL (K. pneumoniae [5]; 1x MIC, 24 hr): 1.5 Log10 CFU/mL
Log10 CFU/mL (K. pneumoniae [5]; 2x MIC, 1 hr): 1.5 Log10 CFU/mL
Log10 CFU/mL (K. pneumoniae [5]; 2x MIC, 3 hr): 1.5 Log10 CFU/mL
Log10 CFU/mL (K. pneumoniae [5]; 2x MIC, 24 hr): 1.5 Log10 CFU/mL
Log10 CFU/mL (K. pneumoniae [5]; 5x MIC, 1 hr): 1.5 Log10 CFU/mL
Log10 CFU/mL (K. pneumoniae [5]; 5x MIC, 3 hr): 1.5 Log10 CFU/mL
Log10 CFU/mL (K. pneumoniae [5]; 5x MIC, 24 hr): 1.5 Log10 CFU/mL
concentration with bactericidal activity (≥3-log 10 CFU/mL reduction at 24 hours) (K. pneumoniae [5]; K. pneumoniae, 37° C.): ≥ 1 ×MIC
Log10 CFU/mL (A. baumannii; 0.2x MIC, 1 hr): 3.8 Log10 CFU/mL
Log10 CFU/mL (A. baumannii; 0.2x MIC, 3 hr): 4.0 Log10 CFU/mL
Log10 CFU/mL (A. baumannii; 0.2x MIC, 24 hr): 5.8 Log10 CFU/mL
Log10 CFU/mL (A. baumannii; 1x MIC, 1 hr): 1.5 Log10 CFU/mL
Log10 CFU/mL (A. baumannii; 1x MIC, 3 hr): 1.5 Log10 CFU/mL
Log10 CFU/mL (A. baumannii; 1x MIC, 24 hr): 1.5 Log10 CFU/mL
Log10 CFU/mL (A. baumannii; 2x MIC, 1 hr): 1.5 Log10 CFU/mL
Log10 CFU/mL (A. baumannii; 2x MIC, 3 hr): 1.5 Log10 CFU/mL
Log10 CFU/mL (A. baumannii; 2x MIC, 24 hr): 1.5 Log10 CFU/mL
Log10 CFU/mL (A. baumannii; 5x MIC, 1 hr): 1.5 Log10 CFU/mL
Log10 CFU/mL (A. baumannii; 5x MIC, 3 hr): 1.5 Log10 CFU/mL
Log10 CFU/mL (A. baumannii; 5x MIC, 24 hr): 1.5 Log10 CFU/mL
concentration with bactericidal activity (≥3-log 10 CFU/mL reduction at 24 hours) (A. baumannii; A. baumannii, 37° C.): ≥ 1 ×MIC
